Experimental data taken from patent US12325865B2, “Methods for increasing efficiency of gene editing in cells” (President and Fellows of Harvard College, priority 2017, dated 2025).

System: PFFF3 cells
Assay: Treatment of Cas9/gRNA-modified PFFF3 cells during multiplex PERV pol genetic modification
Format: cell-based, porcine
Conditions: FIG. 2
Protocol: Stable expression of Cas9 and the three sgRNAs was achieved by integrating a piggyBac transposon carrying these elements into the PFFF3 genome. The PFFF3 cell line was established expressing a Piggybac-Cas9/3gRNAs construct. Cas9 and […] were carried in the same vector. Cas9 expression was induced by addition of doxycycline.
Methods described herein where cells are treated with PFTα and/or bFGF mitigate the stress from multiplex DNA damage and support clonal expansion of 100% PERV-free cells. Such DNA damage decreases targeting efficiency of the PFFF3 population over time and results in the inability to obtain 100% PERV-free PFFF3 clonal cell lines. Methods described herein are directed to inhibiting senescence and/or apoptosis pathways with small-molecule drugs so as to increase the targeting efficiency of the PFFF3 population and enhance viability of the highly edited clones. […] (See FIG. 1). […] (See FIG. 2). […] The distribution of the targeting efficiencies of single cell clones treated with PFTα and bFGF was approximately bimodal, and 100% PERV-free PFFF3 clonal cell lines were isolated. The eradication of pol activity was validated by RNA-seq with confirmation that all pol transcripts had been mutated.

B1: SV40 large T antigen: SV40 large T antigen, treatment also increasing targeting efficiency (protein, UniProt P03070 1-708, looked up)
Large T antigen: MDKVLNREESLQLMDLLGLERSAWGNIPLMRKAYLKKCKEFHPDKGGDEEKMKKMNTLYKKMEDGVKYAHQPDFGGFWDATEIPTYGTDEWEQWWNAFNEENLFCSEEMPSSDDEATADSQHSTPPKKKRKVEDPKDFPSELLSFLSHAVFSNRTLACFAIYTTKEKAALLYKKIMEKYSVTFISRHNSYNHNILFFLTPHRHRVSAINNYAQKLCTFSFLICKGVNKEYLMYSALTRDPFSVIEESLPGGLKEHDFNPEEAEETKQVSWKLVTEYAMETKCDDVLLLLGMYLEFQYSFEMCLKCIKKEQPSHYKYHEKHYANAAIFADSKNQKTICQQAVDTVLAKKRVDSLQLTREQMLTNRFNDLLDRMDIMFGSTGSADIEEWMAGVAWLHCLLPKMDSVVYDFLKCMVYNIPKKRYWLFKGPIDSGKTTLAAALLELCGGKALNVNLPLDRLNFELGVAIDQFLVVFEDVKGTGGESRDLPSGQGINNLDNLRDYLDGSVKVNLEKKHLNKRTQIFPPGIVTMNEYSVPKTLQARFVKQIDFRPKDYLKHCLERSEFLLEKRIIQSGIALLLMLIWYRPVAEFAQSIQSRIVEWKERLDKEFSLSVYQKMKFNVAMGIGVLDWLRNSDDDDEDSQENADKNEDGGEKNMEDSGHETGIDSQSQGSFQAPQSSQSVHDHNQPYHICRGFTCFKKPPTPPPEPET
average targeting efficiency of the resulting PFFF3 population: increased average targeting efficiency
